According to article PMC12343972 (Nature Communications, 2025):
Where a chain is given by its changes, count along the chain named.

Key:
Rad50-R131A = target: T1, Rad50-R131A (Saccharomyces cerevisiae, UniProt P12753 1-1312, R131A); assay: EMSA
T1 sequence: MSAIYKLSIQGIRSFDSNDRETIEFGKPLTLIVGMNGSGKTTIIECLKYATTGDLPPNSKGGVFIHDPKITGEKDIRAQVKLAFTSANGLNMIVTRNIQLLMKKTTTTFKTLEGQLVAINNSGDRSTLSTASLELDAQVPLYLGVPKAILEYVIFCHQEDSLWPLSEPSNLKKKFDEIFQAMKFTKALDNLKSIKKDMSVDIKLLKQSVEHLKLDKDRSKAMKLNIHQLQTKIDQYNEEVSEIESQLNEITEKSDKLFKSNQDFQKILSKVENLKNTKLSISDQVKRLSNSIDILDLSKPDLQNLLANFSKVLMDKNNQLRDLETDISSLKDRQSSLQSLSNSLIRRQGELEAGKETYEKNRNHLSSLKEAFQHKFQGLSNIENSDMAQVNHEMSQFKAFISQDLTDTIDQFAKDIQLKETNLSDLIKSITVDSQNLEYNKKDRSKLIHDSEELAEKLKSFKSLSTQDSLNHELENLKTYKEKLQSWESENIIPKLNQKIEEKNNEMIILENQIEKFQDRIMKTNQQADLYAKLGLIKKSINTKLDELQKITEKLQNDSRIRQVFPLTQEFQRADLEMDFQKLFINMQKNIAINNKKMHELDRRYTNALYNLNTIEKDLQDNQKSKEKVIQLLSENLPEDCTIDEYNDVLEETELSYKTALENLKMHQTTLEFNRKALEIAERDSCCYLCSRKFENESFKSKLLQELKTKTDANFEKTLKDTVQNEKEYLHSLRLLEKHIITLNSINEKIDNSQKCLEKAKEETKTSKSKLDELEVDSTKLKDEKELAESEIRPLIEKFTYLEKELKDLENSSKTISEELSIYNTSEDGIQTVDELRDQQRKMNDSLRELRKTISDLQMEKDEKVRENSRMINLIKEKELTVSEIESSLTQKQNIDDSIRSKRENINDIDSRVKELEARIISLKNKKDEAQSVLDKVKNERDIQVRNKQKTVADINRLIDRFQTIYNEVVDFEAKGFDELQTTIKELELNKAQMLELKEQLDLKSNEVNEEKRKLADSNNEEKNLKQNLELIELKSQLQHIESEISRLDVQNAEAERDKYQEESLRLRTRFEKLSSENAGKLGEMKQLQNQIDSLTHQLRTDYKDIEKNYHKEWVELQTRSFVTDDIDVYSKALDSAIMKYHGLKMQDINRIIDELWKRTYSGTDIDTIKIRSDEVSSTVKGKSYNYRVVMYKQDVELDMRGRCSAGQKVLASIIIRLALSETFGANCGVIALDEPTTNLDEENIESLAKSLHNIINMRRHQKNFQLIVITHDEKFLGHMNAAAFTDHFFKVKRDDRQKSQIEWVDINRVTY

Rad50 WT = target: T2, Rad50 WT (Saccharomyces cerevisiae, UniProt P12753 1-1312); assay: EMSA
T2 sequence: T1 sequence with A131R

B1: 83-mer dsDNA (EMSA) (dsDNA)
DNA 1: TTGATAAGAGGTCATTTTTGCGGATGGCTTAGAGCTTAATTGCTGAATCTGGTGCTGTAGCTCAACATGTTTTAAATATGCAA
DNA 2: TTGCATATTTAAAACATGTTGAGCTACAGCACCAGATTCAGCAATTAAGCTCTAAGCCATCCGCAAAAATGACCTCTTATCAA
- binding result (Rad50-R131A): binds
- binding result (Rad50 WT): binds
